Results from US20090325867A1, “RECEPTOR-SPECIFIC TUMOUR NECROSIS FACTOR-RELATED APOPTOSIS-INDUCING LIGAND (TRAIL) VARIANTS” (MEDICAL RESEARCH COUNCIL, priority 2005, published 2009).

B1: TRAIL.R1-5: 6His TRAIL 95-281 with 193Ser, 199Val, 201Arg, 213Trp and 215Asp (protein)
chain: TSEETISTVQEKQQNISPLVRERGPQRVAAHITGTRGRSNTLSSPNSKNEKALGRKINSWESSRSGHSFLSNLHLRNGELVIHEKGFYYIYSQTYFRFSEEIKEVTRNDKQMVQYIYKWTDYPDPILLMKSARNSCWSKDAEYGLYSIYQGGIFELKENDRIFVSVTNEHLIDMDHEASFFGAFLVG
modifications: biotin (site not stated) in the DISC analysis only; not biotinylated in the apoptosis assays
notes: 6His TRAIL 95-281 with 193Ser, 199Val, 201Arg, 213Trp and 215Asp
B2: HGS-ETR2 (antibody, INN chains, looked up, V domains shown)
VH: EVQLVQSGGGVERPGGSLRLSCAASGFTFDDYGMSWVRQAPGKGLEWVSGINWNGGSTGYADSVKGRVTISRDNAKNSLYLQMNSLRAEDTAVYYCAKILGAGRGWYFDLWGKGTTVTVSS
VL: SSELTQDPAVSVALGQTVRITCQGDSLRSYYASWYQQKPGQAPVLVIYGKNNRPSGIPDRFSGSSSGNTASLTITGAQAEDEADYYCNSRDSSGNHVVFGGGTKLTVL

Columns and labels:
Ramos cells [1] = assay: Caspase-8 and -3 processing by Western blot in Ramos cells; type: cell-based; conditions: FIG. 1D
Procedure: (§1) Cells were also exposed to HGS-ETR1 or HGSETR2 (1 μg ml^−1). C: Ramos or Jurkat cells were pre-incubated for 30 min either alone or with TRAIL-R1 blocking Ab or TRAIL-R2 neutralizing Ab (5 μg ml^−1). […] D: Ramos and Jurkat cells were exposed to wt TRAIL or TRAIL mutants as described above and processing of caspase-3 and -8 determined by Western blot analysis. The asterisk indicates a non-specific band. The lower panel of the blot for detection of the caspase-8 p18 subunit was exposed for twice as long as the upper panel. Apoptosis was assessed by phosphatidylserine externalization and results expressed as the Means±SEM of at least 3 separate determinations.
(§2) Apoptosis was quantified by phosphatidylserine (PS) externalization in the presence of propidium iodide as described (MacFarlane et al., 2002 ibid.). Samples for Western blot analysis were prepared and caspase processing detected as described (Inoue et al., 2004 ibid.; MacFarlane et al., 2005 ibid.).
(§3) To confirm that the mutants were inducing apoptosis, we examined their effects on the processing of caspase-8, the apical caspase in death receptor-induced apoptosis and caspase-3, an effector caspase.

primary MCL cells = assay: Apoptosis in freshly isolated primary MCL cells with or without depsipeptide pre-treatment; type: cell-based, human; conditions: pre-treatment 16 h with depsipeptide (5 nM), depsipeptide alone 35.4±5%
Procedure: Cell lines were also pre-incubated for 30 min with a TRAIL-R1 blocking Ab and a TRAIL-R2 neutralizing Ab from Alexis and R&D systems, respectively, prior to exposure to TRAIL. Freshly isolated cells from patients with MCL were isolated, purified and incubated with different forms of TRAIL as described above for CLL cells. Samples were either analyzed immediately for apoptosis or stored at −80° C. for subsequent Western blotting. Other methods and reagents were as described (Inoue (2004 Cell Death Differ 11 Suppl 2, S193-206); MacFarlane et al., 2005 ibid).
as §2
We also obtained three samples from patients with mantle cell lymphoma (MCL), an incurable and aggressive disease that accounts for ˜6% of all non-Hodgkin's lymphoma. There are no standard treatments for MCL and the prognosis is very poor particularly for the blastoid variant. MCL cells were isolated and exposed to the different forms of TRAIL after pre-treatment for 16 h with depsipeptide (5 nM).

Ramos cells [2] = assay: Apoptosis by phosphatidylserine (PS) externalization in Ramos cells; type: cell-based; conditions: for ability to induce apoptosis in Ramos cells (in words): PS externalization, compared with wt TRAIL
Jurkat cells = assay: Caspase-8 and -3 processing by Western blot in Jurkat cells; type: cell-based; conditions: FIG. 1D
Procedure: as §1, §2, §3

| Molecule | processing of caspase-8 and caspase-3 (Ramos cells [1]) | apoptosis, ligand or antibody after depsipeptide pre-treatment (primary MCL cells) | inhibition of ligand-induced apoptosis by receptor blocking antibodies (Ramos cells [2]; 30 min pre-incubation with TRAIL-R1 blocking Ab or TRAIL-R2 neutralizing Ab (5 μg ml^−1)) | concentration-response of apoptosis compared with wt TRAIL (Ramos cells [2]; 4 h, FIG. 1B) | % PS+ cells, Ramos (Ramos cells [2]; 4 h exposure, 500 ng ml^−, Mean ± SEM of at least three determinations) | ability to induce apoptosis in Ramos cells (in words) (Ramos cells [2]) | processing of caspases-8 and -3 (Jurkat cells) |
| --- | --- | --- | --- | --- | --- | --- | --- |
| B1 | induced the processing | 54.3±9.1% | blocking antibody specific to TRAIL-R1 but not to TRAIL-R2 to inhibit apoptosis | very similar concentration-response to wt TRAIL | 35.9 ± 6.4% | retained most of the activity of wt TRAIL | small amount of caspase processing |
| B2 | not | 38.3±4.3% | – | – | – | not in Ramos cells | most potent |
